US10894986B2, “Compositions and methods for treating or preventing prostate cancer and for detecting androgen receptor variants” (The Johns Hopkins University, priority 2008, dated 2021)

Legend:
[1] = system: LNCaP cells; test: MTS cell growth assay of transfected LNCaP cells; format: cell-based, human; details: charcoal stripped serum, absence or presence of 0.5 nM R1881
Description: LNCaP cells were transfected by AR-V7 and the control vector. A. Cell growth in medium supplemented with charcoal stripped serum (CSS) in absence or presence of 0.5 nM R1881 were monitored by MTS assay. Ectopic expression of AR-V7 in LNCaP cells was confirmed by western blot analysis (B). As shown the growth rates of AR-V7 expressing cells surpassed those of parental cells cultured in the presence of synthetic androgen R1881.

[2] = system: PSA reporter gene; details: exogenously transfected, AR-negative PC-3 cells, presence or absence of R1881
Description: PC-3 cells were transfected with pEGFP-AR and pEGFP-AR-V7 to express the prototype AR or AR-V7 and examined for the localization of GFP-tagged AR proteins in the presence or absence of 5 nmol/L R1 881. […] PC-3 cells were transfected with vector control (EGFP), a LBD-truncated AR mutant (EGFP-Q640X), AR-V7 (EGFP-AR-V7), and prototype AR (EGFP-AR) and subjected to luciferase assays and Western blot analysis following culturing in the presence or absence of R1 881. […] LNCaP cells were transfected with pcDNA-AR-V7 to express the untagged AR-V7 protein or the control pcDNA vector and cultured with or without 10 nmol/L R1 881 before being harvested for Western blot analysis or RNA extraction for expression microarray analysis. The genes shown were the top 20 ranked genes by fold induction following R1 881 treatment in pcDNA empty vector-transfected LNCaP cells. Expression ratios of the test sample versus the common reference (pcDNA empty vector-transfected LNCaP without R1 881) were represented by red (>1) and green colors (<1).
pEGFP-AR and pEGFP-Q640X, which contain the full-length prototype AR and AR Q640X LBD-truncated mutant cDNA, were kind gifts of Dr. Jocelyn Céraline (Université Strasbourg, Strasbourg, France). The cDNA encoding the full-length AR-V7 was inserted into the pEGFP-C3 vector to express the GFP-AR-V7 fusion protein. […]

[3] = system: androgen-responsive genes (KLK3, KLK2, NKX3-1, FKBP5, TMPRSS2); details: LNCaP cells, absence of androgens
Description: LNCaP cells were transfected with pcDNA-AR-V7 to express the untagged AR-V7 protein or the control pcDNA vector and cultured with or without 10 nmol/L R1 881 before being harvested for Western blot analysis or RNA extraction for expression microarray analysis. The genes shown were the top 20 ranked genes by fold induction following R1 881 treatment in pcDNA empty vector-transfected LNCaP cells. Expression ratios of the test sample versus the common reference (pcDNA empty vector-transfected LNCaP without R1 881) were represented by red (>1) and green colors (<1).

B1: AR-V7: androgen receptor variant lacking the ligand binding domain, SEQ ID NO: 8, expressed from transfected cDNA (protein)
chain: MEVQLGLGRVYPRPPSKTYRGAFQNLFQSVREVIQNPGPRHPEAASAAPPGASLLLLQQQQQQQQQQQQQQQQQQQQQQQETSPRQQQQQQGEDGSPQAHRRGPTGYLVLDEEQQPSQPQSALECHPERGCVPEPGAAVAASKGLPQQLPAPPDEDDSAAPSTLSLLGPTFPGLSSCSADLKDILSEASTMQLLQQQQQEAVSEGSSSGRAREASGAPTSSKDNYLGGTSTISDNAKELCKAVSVSMGLGVEALEHLSPGEQLRGDCMYAPLLGVPPAVRPTPCAPLAECKGSLLDDSAGKSTEDTAEYSPFKGGYTKGLEGESLGCSGSAAAGSSGTLELPSTLSLYKSGALDEAAAYQSRDYYNFPLALAGPPPPPPPPHPHARIKLENPLDYGSAWAAAAAQCRYGDLASLHGAGAAGPGSGSPSAAASSSWHTLFTAEEGQLYGPCGGGGGGGGGGGGGGGGGGGGGGGEAGAVAPYGYTRPPQGLAGQESDFTAPDVWYPGGMVSRVPYPSPTCVKSEMGPWMDSYSGPYGDMRLETARDHVLPIDYYFPPQKTCLICGDEASGCHYGALTCGSCKVFFKRAAEGKQKYLCASRNDCTIDKFRRKNCPSCRLRKCYEAGMTLGEKFRVGNCKHLKMTRP
cell growth [1]: promotes androgen independent growth | PSA reporter gene expression [2]: induced PSA reporter gene expression in an androgen-independent manner | induction of androgen-responsive genes [3]: induced canonical androgen-responsive genes
